For 2 molecules, EC50 results are on record in US20220220204A1 (published 2022).

Holding throughout (assay): FACS binding
The target of assay [1] is T1, PD-L1 expressed on CHO-K1 cells (UniProt Q9NZQ7 19-290).
For assay [2], the target named is T1, PD-L1 expressed on CHO-K1 cells. The source holds these as a separate data set.
The target of assay [3] is T2, LAG-3 expressed on CHO-K1 cells (UniProt P18627 23-525).
T2 chain: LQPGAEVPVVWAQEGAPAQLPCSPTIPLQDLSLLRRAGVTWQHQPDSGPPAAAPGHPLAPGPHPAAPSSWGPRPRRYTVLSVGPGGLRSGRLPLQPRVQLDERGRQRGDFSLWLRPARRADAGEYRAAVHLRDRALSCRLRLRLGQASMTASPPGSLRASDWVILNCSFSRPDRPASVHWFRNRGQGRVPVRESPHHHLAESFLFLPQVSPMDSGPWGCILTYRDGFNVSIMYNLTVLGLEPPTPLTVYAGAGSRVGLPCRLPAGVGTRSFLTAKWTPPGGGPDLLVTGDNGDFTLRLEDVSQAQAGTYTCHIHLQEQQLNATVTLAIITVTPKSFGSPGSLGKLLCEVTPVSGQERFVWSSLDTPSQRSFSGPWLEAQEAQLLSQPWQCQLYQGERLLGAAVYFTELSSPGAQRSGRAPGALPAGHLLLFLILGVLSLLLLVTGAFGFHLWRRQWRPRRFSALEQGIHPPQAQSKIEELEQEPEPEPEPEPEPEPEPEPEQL

For assay [4], the target named is T2, LAG-3 expressed on CHO-K1 cells.

Like-named read-outs stand apart in the source and are kept apart here.

T1 sequence (Q9NZQ7 19-290): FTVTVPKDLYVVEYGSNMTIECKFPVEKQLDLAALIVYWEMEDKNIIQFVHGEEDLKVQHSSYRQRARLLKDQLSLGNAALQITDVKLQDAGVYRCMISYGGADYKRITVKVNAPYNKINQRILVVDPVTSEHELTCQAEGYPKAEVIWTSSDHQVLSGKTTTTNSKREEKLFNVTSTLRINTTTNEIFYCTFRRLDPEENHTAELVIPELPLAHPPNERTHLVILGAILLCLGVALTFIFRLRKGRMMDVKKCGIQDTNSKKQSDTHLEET

B1: PDL1HCv1 (antibody, V domains shown)
VH: EVQLVQSGAEVKKPGASVKVSCKASGYIFTGYGITWVRQAPGQGLEWMGEIFPRRVQTYYSEKFKGRVTMTTDTSTSTAYMELRSLRSDDTAVYYCARDYDPYFALDYWGQGTTVTVSS
VL: DIQMTQSPSSLSASVGDRVTITCRASQDVSTAVDWYQQKPGKAPKLLIYSASYRYTGVPDRFSGSGSGTDFTFTISSLQPEDIATYYCQQHYSIPFTFGQGTKLEIKR
In the case of B1, the EC50 in assay [1] worked out at 0.205 nM; in assay [2], 0.651 nM; in assay [3], 0.0376 nM.

B2: PDL1HCv5 (antibody, V domains shown)
VH: EVQLVQSGAEVKKPGASVKVSCKASGYIFTGYGITWVRQAPGQGLEWMGEIFPRRVQTYYSEKFKGRVTMTADTSTSTAYMELRSLRSDDTAVYYCARDYDPYFALDYWGQGTTVTVSS
VL: DIQMTQSPSSLSASVGDRVTITCRASQDVSTAVDWYQQKPGKAPKLLIYSASYRYTGVPDRFSGSGSGTDFTFTISSLQPEDIATYYCQQHYSIPFTFGQGTKLEIKR
On to B2, for which the EC50 in assay [2] turned out to be 0.311 nM; in assay [4], 8.42 nM.
